Experimental data taken from patent US20040248275A1, “Engineered bacterial aggregates” (priority 2003, published 2004).

What was measured:
Format in all cases: cell-based
[1] = system: P. putida; experiment: Lectin aggregation of bacterial cells (microtitre wells, semi-quantitative score); parameters: key: Where the addition of lectins did not cause the aggregation of cells, a score of “0” was assigned; Lectins that caused cellular-aggregation to give small flocs in a turbid suspension were given a score of “+”; A score of “++” was given to lectin-cell aggregate mixes that resulted in large aggregates seen by eye in a turbid suspension; Lectins that caused cellular aggregation to give easily visible aggregates in a clear solution were given a score of “+++”; conditions: cells O.D. 0.5 at 650 nm
Protocol: (§1) Assay approach: Six lectins were chosen to discover their suitability for the aggregation of different species of bacteria. These were Concanavalin A, Lentil lectin, Pseudomonas aeruginosa lectin, peanut lectin, Limulus polyphemus lectin and wheat germ lectin.
(§2) The ability of the lectins to aggregate bacterial cells was studied by mixing cells at an O.D. of 0.5 at 650 nm with different lectins at different concentrations. The extent of aggregation was determined by a semi-quantitative approach. […] Lectins that caused cellular-aggregation to give small flocs in a turbid suspension were given a score of “+”. […] Lectins that caused cellular aggregation to give easily visible aggregates in a clear solution were given a score of “+++”.

[2] = system: A. hydrophila; experiment: as above; parameters: key: Where the addition of lectins did not cause the aggregation of cells, a score of “0” was assigned; Lectins that caused cellular-aggregation to give small flocs in a turbid suspension were given a score of “+”; A score of “++” was given to lectin-cell aggregate mixes that resulted in large aggregates seen by eye in a turbid suspension; Lectins that caused cellular aggregation to give easily visible aggregates in a clear solution were given a score of “+++”; conditions: cells O.D. 0.5 at 650 nm
Protocol: as §1, §2

[3] = system: K. oxytoca; experiment: as above; parameters: key: Where the addition of lectins did not cause the aggregation of cells, a score of “0” was assigned; Lectins that caused cellular-aggregation to give small flocs in a turbid suspension were given a score of “+”; A score of “++” was given to lectin-cell aggregate mixes that resulted in large aggregates seen by eye in a turbid suspension; Lectins that caused cellular aggregation to give easily visible aggregates in a clear solution were given a score of “+++”; conditions: cells O.D. 0.5 at 650 nm
Protocol: as §1, §2

[4] = system: E. coli C600 (K12); experiment: as above; parameters: key: Where the addition of lectins did not cause the aggregation of cells, a score of “0” was assigned; Lectins that caused cellular-aggregation to give small flocs in a turbid suspension were given a score of “+”; A score of “++” was given to lectin-cell aggregate mixes that resulted in large aggregates seen by eye in a turbid suspension; Lectins that caused cellular aggregation to give easily visible aggregates in a clear solution were given a score of “+++”; conditions: cells O.D. 0.5 at 650 nm
Protocol: as §1, §2

[5] = system: Pseudomonas sp. Strain 2881; experiment: Titration of ConA against bacterial suspension, aggregate size measured; conditions: within 5.0% S.E.
Protocol: Aggregates of different size were constructed by titrating cona against suspensions of bacteria and observing the formation of aggregates. These were visible by eye as well as by optical microscope (FIG. 1).
Aggregate size was measured. A parabolic relationship between the ratio of ConA and bacterial density was observed (Table 3). […] This hypothesis reflects that established for antibody:antigen precipitation reactions.
Within an optimal range of […] and 0.6 mg/ml ConA, bacterial aggregates of 10 to >100 μm diameter could be reproducibly formed with a lectin excess that enabled further bacteria to be sequestered to the surface of the aggregate. The aggregates could be readily disassociated by the addition of approximately 50 mM maltose, glucose or sucrose to ConA, followed by 30s of gentle pipetting. This is ideal for the accurate enumeration of viable bacteria based upon CFU measurement on nutrient agar.

[6] = system: taxonomically distinct species of bacteria; experiment: Lectins tested for potential to construct bacterial aggregates
From the text: We have selected the lectin Concanavalin A (ConA) as the most preferred (Sigma, Poole, Dorset, UK). Other lectins tested for their potential in the present invention were Wheat Germ Lectin (WGA), lectin from Limulus polyphemus and Peanut Agglutinin (PNA). […] However, ConA was the only lectin that strongly reacted with, and aggregated, over 15 taxonomically distinct species of bacteria. ConA was subsequently deemed the most preferable for use. However, any lectin is suitable for the invention as long as the lectin is capable of agglutinating the desired species.
as §1, §2

| Molecule | extent of aggregation (score) ([1]; lectin 1 × 10^−1 mg/mL) | extent of aggregation (score) ([1]; lectin 1 × 10^−2 mg/mL) | extent of aggregation (score) ([1]; lectin 1 × 10^−3 mg/mL) | extent of aggregation (score) ([2]; lectin 1 × 10^−1 mg/mL) | extent of aggregation (score) ([2]; lectin 1 × 10^−2 mg/mL) | extent of aggregation (score) ([2]; lectin 1 × 10^−3 mg/mL) | extent of aggregation (score) ([3]; lectin 1 × 10^−1 mg/mL) | extent of aggregation (score) ([3]; lectin 1 × 10^−2 mg/mL) | extent of aggregation (score) ([3]; lectin 1 × 10^−3 mg/mL) | extent of aggregation (score) ([4]; lectin 1 × 10^−1 mg/mL) | extent of aggregation (score) ([4]; lectin 1 × 10^−2 mg/mL) | extent of aggregation (score) ([4]; lectin 1 × 10^−3 mg/mL) | other results |
| --- | --- | --- | --- | --- | --- | --- | --- | --- | --- | --- | --- | --- | --- |
| Concanavalin A | +++ | ++ | + | +++ | ++ | ++ | ++ | + | 0 | +++ | +++ | + | Size of aggregate ([5]; Amount of ConA 0.001 mg/ml): No aggregation; Size of aggregate ([5]; Amount of ConA 0.01 mg/ml): 11.2 μm; Size of aggregate ([5]; Amount of ConA 0.05 mg/ml): 53.4 μm; Size of aggregate ([5]; Amount of ConA 0.1 mg/ml): 106.7 μm; Size of aggregate ([5]; Amount of ConA 0.2 mg/ml): 91.2 μm; Size of aggregate ([5]; Amount of ConA 0.4 mg/ml): 73.1 μm; Size of aggregate ([5]; Amount of ConA 0.6 mg/ml): 55.4 μm; Size of aggregate ([5]; Amount of ConA 0.8 mg/ml): No aggregation; Size of aggregate ([5]; Amount of ConA 1.0 mg/ml): No aggregation; taxonomically distinct species of bacteria strongly reacted with, and aggregated [6]: over 15 |
| Lentil lectin (protein, UniProt P02870 31-210; P02870 218-269, looked up) Lectin beta chain: TETTSFSITKFSPDQKNLIFQGDGYTTKGKLTLTKAVKSTVGRALYSTPIHIWDRDTGNVANFVTSFTFVIDAPSSYNVADEFTFFIAPVDTKPQTGGGYLGVFNSKEYDKTSQTVAVEFDTFYNAAWDPSNKERHIGIDVNSIKSVNTKSWNLQNGERANVVIAFNAATNVLTVTLTYP Lectin alpha chain: VTSYTLNEVVPLKDVVPEWVRIGFSATTGAEFAAHEVHSWSFHSELGGTSSS | +++ | ++ | + | +++ | ++ | ++ | ++ | + | 0 | +++ | ++ | + |  |
